According to US7291458B2, “Leptin-mediated gene-induction” (Vlaams Interuniversitair Instituut Voor Biotechnologie VZW, priority 1998, dated 2007):

Tests used:
[1] = tested on: PC12-LR8 cells; assay: Northern blot analysis of gene induction in non-differentiated PC12-LR8 cells; assay type: cell-based, rat
Description: PC12-LR8 cells were treated with leptin (L), forskolin (F), or a combination of both (F/L) for the indicated length of time. Hybridization with the mouse b-actin probe was used as a control. NI stands for non-induced control cells. Sizes of transcripts are shown on the right. Exposure times to Biomax MS films were 5.5 days for LIP-I and LIP-II, and 1 day for the corresponding b-actin blot, all at −80° C.
FIG. 6A. Induction patterns of Reg I, HIP-I and peripherin after a 12 hours stimulation with forskolin (F), leptin (L), forskolin plus leptin (F/L), hyper-IL-6 (H) or forskolin plus hyper-IL-6 (F/H). Untreated cells were analyzed as a control (NI). Exposure times to BioMax MS films for Reg I, HIP-I and b-actin were 4 days, 5 days and 3 hours, respectively; and in a separate experiment for peripherin and b-actin, 16 hours and 2 days.
FIG. 6B Induction patterns of PAP I, PAP III, MT-II, Fnk, MRF-1, SOCS-3 and STAT-3 after stimulation with leptin (L) or hyper-IL-6 (H), compared to non-treated control cells (NI). In all cases stimulation was for 12 hours, with the exception of PAP III where stimulation was for 24 hours. b-actin hybridization patterns are shown as control. Exposure times to BioMax MS films at −80° C. were 16 hours for PAP I and 1 hour for b-actin; 4 days for PAP III and 1 hour for b-actin; 3 days for MT-II and Fnk, and2 days for b-actin; 3 days for MRF-1, 2.5 days for SOCS-3 and2 days for b-actin; and 16 hours for STAT-3 and 3 hours for b-actin.
FIG. 8A. Northern blot analysis of the immediate early response genes. PC12-LR8 cells were left untreated (NI: non induced), or were treated with forskolin (F), leptin (L) or a combination of both (F/L) for the indicated time points. Exposure times to BioMax MS films for the different transcripts were Fnk: 6 days, MT-II: 5 days, MRF-1: 6 days, SOCS-3: 14 hours, STAT-3: 14 hours, b-actin: 5 hours.
FIG. 8B. Immediate early response gene-set: early kinetics. PC12-LR8 cells were treated with leptin alone (L) or with a combination of leptin and forskolin (F/L) for the indicated length of time. Exposure time to BioMax MS films were: Fnk: 3 days, MT-II: 3 days, MRF-1: 3 days, SOCS-3: 2.5 days, STAT-3: 2.5 days, b-actin: 1 hour.
FIG. 8C. Northern blot analysis of the late target genes. PC12-LR8 cells were left untreated (NI), or were treated with forskolin (F), leptin (L) or a combination of both (F/L) for the indicated length of time. Exposure times to BioMax MS films were: Ann VIII: 6 days, PAP I: 14 hours, Squalene Epoxidase: 5 days, UGT: 5 days, b-actin: 14 hours.
PC12 cells were cultured in RPMI 1640 medium with glutamax-I (GibcoBRL) containing 10% heat-inactivated foetal calf serum (iFCS) and gentamycin (50 μg/ml). The cells were treated with medium alone or supplemented with 100 ng/ml of mouse leptin (R&D Systems), with forskolin (Sigma) at a concentration of 10 μM or with a combination both, unless otherwise indicated.
Total RNA was prepared from PC12 cells using RNeasy™ method (Qiagen). RNA (10 μg) was separated on a 1.5% agarose,6% formaldehyde gel, transferred to a nylon membrane (Zeta-Probe GT Genomic, Bio-Rad), and cross-linked using UV radiation. The filters were hybridized for one hour at 68° C. in ExpressHyb™ solution (Clontech) with [^32P]dCTP-labeled DNA-probes and washed 3 times with 2×SSC, 0.05% SDS at room temperature and twice in 0.1×SSC, 0.1% SDS at 50° C. Autoradiographs were obtained by exposing the blots to BioMax MS film (Kodak) with intensifying screens at −70° C. All Northern blots were normalized by hybridization using a b-actin probe.

[2] = tested on: differentiated PC12-LR8 cells; assay: RDA and Northern blot of leptin-responsive genes in differentiated PC12-LR8 cells; assay type: cell-based, rat; settings: leptin 24 hours, continued presence of b-NGF and forskolin
Description: Adherent PC12-LR8 cells were treated with b-NGF and forskolin for 5 days to induce neuronal differentiation. Differentiated cells were treated with leptin (nF/L) for 24 hours, or were left untreated (nF), in the continued presence of b-NGF and forskolin. Non-differentiated cells were treated for 24 hours with leptin and forskolin (F/L) or with forskolin alone (F). Hybridization was performed with probes as indicated. Mouse b-actin probe was used as a control. Exposure to BioMax film at −80° C. was 3 days for Mx2, 3 hours for peripherin, 4 days for PAP III and 16 hours for b-actin.
The search for leptin-regulated genes was also extended to differentiated PC12 cells (FIG. 5). Adherent PC12-LR8 cells were treated with b-NGF and forskolin for 5 days, which led to a growth arrest, the formation of branched neuritic processes and the accumulation of small vesicles. Again, a RDA experiment was performed using mRNAs from differentiated cells treated with leptin for 24 hours, or from untreated cells, both in the continued presence of b-NGF and forskolin.
For neuronal differentiation, resuspended PC12 were seeded on rat tail collagen (Collaborative Biomedical Products) coated plates at 2-3 10^6 cells/25 cm^2 flask in RMPI 1640 medium with glutamax-I containing 10% heat-inactivated horse serum, 5% iFCS and gentamycin. […]

B1: leptin: mouse leptin (R&D Systems), ob gene product, used on PC12 cells at 100 ng/ml (protein)
chain: VPIQKVQDDTKTLIKTIVTRINDISHTQSVSAKQRVTGLDFIPGLHPILSLSKMDQTLAVYQQVLTSLPSQNVLQIANDLENLRDLLHLLAFSKSCSLPQTSGLQKPESLDGVLEASLYSTEVVALSRLQGSLQDILQQLDVSPEC
kinetics of synthesis of SOCS-3 mRNA ([1]; 2 hours post stimulation): rapid decline
time of optimal mRNA levels post induction ([1]; Annexin VIII, Squalene epoxidase): over 96 hours
time of induction of immediate early response genes ([1]; Fnk, MT-II, MRF-1, STAT-3, SOCS-3, leptin treatment): ≤ 4 h
time of optimal mRNA levels post induction ([1]; PAP I, UGT): 22 h
time of induction of late activated target genes after stimulus ([1]; PAP I, UGT, Ann VIII, squalene epoxidase, leptin treatment): ≥ 6 h
induction of HIP-I and Reg transcripts ([1]; RDA hyper-IL-6 versus leptin): not induced
time of optimal stimulation post induction ([1]; SOCS-3): 30 min
time of optimal stimulation post induction ([1]; STAT-3): 480 min
induction of PAP I and PAP III transcripts ([1]; without forskolin): requires forskolin co-stimulation
regulation of Mx2, Peripherin and PAP III transcripts [2]: up-regulated
